Measured values taken from PMC4242836 (The Journal of Cell Biology, 2014).

Target: T1, Snu13p (S. cerevisiae, UniProt P39990 1-126)
T1 sequence: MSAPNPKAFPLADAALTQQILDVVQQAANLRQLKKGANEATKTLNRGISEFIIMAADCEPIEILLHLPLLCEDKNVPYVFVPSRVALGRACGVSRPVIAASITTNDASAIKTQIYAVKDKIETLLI
Test: crystal structure

binding result: binds
B1: Rsa1_(238–290) (domain or fragment)
chain: TDEDVKKWREERKKMWLLKISNNKQKHMQEMGIKEDELKSQPSIFKESRKEKQ
